According to publication PMC2173603:

Target: L1-CFP (CFP tagged to the COOH terminus of human L1-CAM) (human) (UniProt P32004)
Test: FRET or BRET

Chain of UniProt P32004 (P32004 20-1257): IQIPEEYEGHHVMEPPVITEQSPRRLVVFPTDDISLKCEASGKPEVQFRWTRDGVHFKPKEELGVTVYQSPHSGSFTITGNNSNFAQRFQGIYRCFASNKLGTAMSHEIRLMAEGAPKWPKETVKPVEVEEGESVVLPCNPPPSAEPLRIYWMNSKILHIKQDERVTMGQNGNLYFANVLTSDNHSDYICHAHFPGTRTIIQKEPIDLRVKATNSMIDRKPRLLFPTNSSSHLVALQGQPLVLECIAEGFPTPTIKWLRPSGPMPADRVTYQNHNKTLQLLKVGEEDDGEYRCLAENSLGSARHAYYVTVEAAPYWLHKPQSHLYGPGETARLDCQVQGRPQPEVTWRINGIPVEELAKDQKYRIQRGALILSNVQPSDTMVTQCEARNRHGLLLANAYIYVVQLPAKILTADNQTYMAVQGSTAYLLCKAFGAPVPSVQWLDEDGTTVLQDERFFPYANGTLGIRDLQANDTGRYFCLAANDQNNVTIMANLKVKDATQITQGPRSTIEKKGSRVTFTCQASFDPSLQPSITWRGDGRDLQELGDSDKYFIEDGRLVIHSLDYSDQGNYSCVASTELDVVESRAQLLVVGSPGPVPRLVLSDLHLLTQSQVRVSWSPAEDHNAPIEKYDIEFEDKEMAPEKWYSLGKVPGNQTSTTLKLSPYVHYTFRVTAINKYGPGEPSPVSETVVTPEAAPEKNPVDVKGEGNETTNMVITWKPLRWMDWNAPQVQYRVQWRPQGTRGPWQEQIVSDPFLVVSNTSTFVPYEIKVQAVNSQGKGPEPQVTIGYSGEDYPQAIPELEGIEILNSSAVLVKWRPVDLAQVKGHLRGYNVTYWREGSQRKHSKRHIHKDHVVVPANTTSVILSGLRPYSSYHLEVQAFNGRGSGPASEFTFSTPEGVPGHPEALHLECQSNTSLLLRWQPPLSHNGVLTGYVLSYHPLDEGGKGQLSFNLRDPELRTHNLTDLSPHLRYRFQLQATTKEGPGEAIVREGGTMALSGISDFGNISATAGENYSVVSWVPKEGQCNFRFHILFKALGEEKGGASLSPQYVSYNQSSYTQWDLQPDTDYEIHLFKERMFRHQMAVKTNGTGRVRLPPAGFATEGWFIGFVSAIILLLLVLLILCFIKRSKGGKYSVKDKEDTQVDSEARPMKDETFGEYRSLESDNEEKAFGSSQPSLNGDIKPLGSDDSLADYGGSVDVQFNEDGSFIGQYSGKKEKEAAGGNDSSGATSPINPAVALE

percent of ankyrinB clusters with FRET^E >8%: 29.4%
Substance: Venus-ankyrinB (Venus tagged to the NH2 terminus of human ankyrinB) (natural protein)
